Experimental data as given in paper PMC12199305 (2025).

How the values were obtained:
MEF2A [1] = target: T1, MEF2A (human, UniProt Q02078 1-507); experiment: SPR
MEF2A [2] = target: T1, MEF2A; experiment: SPR; remark: listed apart in the source

T1 sequence (Q02078 whole entry): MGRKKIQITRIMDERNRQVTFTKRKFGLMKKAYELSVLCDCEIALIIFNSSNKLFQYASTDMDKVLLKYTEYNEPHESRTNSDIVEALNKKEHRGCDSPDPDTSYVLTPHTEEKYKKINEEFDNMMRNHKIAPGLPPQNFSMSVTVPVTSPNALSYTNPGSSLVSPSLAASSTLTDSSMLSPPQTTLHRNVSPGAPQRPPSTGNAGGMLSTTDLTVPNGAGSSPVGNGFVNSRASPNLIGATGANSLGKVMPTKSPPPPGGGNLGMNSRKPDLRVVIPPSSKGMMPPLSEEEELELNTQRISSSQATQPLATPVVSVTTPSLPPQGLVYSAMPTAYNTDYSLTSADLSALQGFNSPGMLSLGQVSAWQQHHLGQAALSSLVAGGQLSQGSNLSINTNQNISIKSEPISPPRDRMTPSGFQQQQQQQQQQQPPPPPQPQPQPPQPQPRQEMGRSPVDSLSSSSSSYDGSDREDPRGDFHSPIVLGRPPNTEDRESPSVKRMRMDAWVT

B1: HDAC9 (enzyme)
chain: MHSMISSVDVKSEVPVGLEPISPLDLRTDLRMMMPVVDPVVREKQLQQELLLIQQQQQIQKQLLIAEFQKQHENLTRQHQAQLQEHIKELLAIKQQQELLEKEQKLEQQRQEQEVERHRREQQLPPLRGKDRGRERAVASTEVKQKLQEFLLSKSATKDTPTNGKNHSVSRHPKLWYTAAHHTSLDQSSPPLSGTSPSYKYTLPGAQDAKDDFPLRKTASEPNLKVRSRLKQKVAERRSSPLLRRKDGNVVTSFKKRMFEVTESSVSSSSPGSGPSSPNNGPTGSVTENETSVLPPTPHAEQMVSQQRILIHEDSMNLLSLYTSPSLPNITLGLPAVPSQLNASNSLKEKQKCETQTLRQGVPLPGQYGGSIPASSSHPHVTLEGKPPNSSHQALLQHLLLKEQMRQQKLLVAGGVPLHPQSPLATKERISPGIRGTHKLPRHRPLNRTQSAPLPQSTLAQLVIQQQHQQFLEKQKQYQQQIHMNKLLSKSIEQLKQPGSHLEEAEEELQGDQAMQEDRAPSSGNSTRSDSSACVDDTLGQVGAVKVKEEPVDSDEDAQIQEMESGEQAAFMQQPFLEPTHTRALSVRQAPLAAVGMDGLEKHRLVSRTHSSPAASVLPHPAMDRPLQPGSATGIAYDPLMLKHQCVCGNSTTHPEHAGRIQSIWSRLQETGLLNKCERIQGRKASLEEIQLVHSEHHSLLYGTNPLDGQKLDPRILLGDDSQKFFSSLPCGGLGVDSDTIWNELHSSGAARMAVGCVIELASKVASGELKNGFAVVRPPGHHAEESTAMGFCFFNSVAITAKYLRDQLNISKILIVDLDVHHGNGTQQAFYADPSILYISLHRYDEGNFFPGSGAPNEVGTGLGEGYNINIAWTGGLDPPMGDVEYLEAFRTIVKPVAKEFDPDMVLVSAGFDALEGHTPPLGGYKVTAKCFGHLTKQLMTLADGRVVLALEGGHDLTAICDASEACVNALLGNELEPLAEDILHQSPNMNAVISLQKIIEIQSMSLKFS
B1 was tested, and the Kd (MEF2A [1]) was 19.1 nM and the koff (MEF2A [2]) was 0.0082 s⁻¹.

B2: HDAC4 (enzyme)
chain: MSSQSHPDGLSGRDQPVELLNPARVNHMPSTVDVATALPLQVAPSAVPMDLRLDHQFSLPVAEPALREQQLQQELLALKQKQQIQRQILIAEFQRQHEQLSRQHEAQLHEHIKQQQEMLAMKHQQELLEHQRKLERHRQEQELEKQHREQKLQQLKNKEKGKESAVASTEVKMKLQEFVLNKKKALAHRNLNHCISSDPRYWYGKTQHSSLDQSSPPQSGVSTSYNHPVLGMYDAKDDFPLRKTASEPNLKLRSRLKQKVAERRSSPLLRRKDGPVVTALKKRPLDVTDSACSSAPGSGPSSPNNSSGSVSAENGIAPAVPSIPAETSLAHRLVAREGSAAPLPLYTSPSLPNITLGLPATGPSAGTAGQQDAERLTLPALQQRLSLFPGTHLTPYLSTSPLERDGGAAHSPLLQHMVLLEQPPAQAPLVTGLGALPLHAQSLVGADRVSPSIHKLRQHRPLGRTQSAPLPQNAQALQHLVIQQQHQQFLEKHKQQFQQQQLQMNKIIPKPSEPARQPESHPEETEEELREHQALLDEPYLDRLPGQKEAHAQAGVQVKQEPIESDEEEAEPPREVEPGQRQPSEQELLFRQQALLLEQQRIHQLRNYQASMEAAGIPVSFGGHRPLSRAQSSPASATFPVSVQEPPTKPRFTTGLVYDTLMLKHQCTCGSSSSHPEHAGRIQSIWSRLQETGLRGKCECIRGRKATLEELQTVHSEAHTLLYGTNPLNRQKLDSKKLLGSLASVFVRLPCGGVGVDSDTIWNEVHSAGAARLAVGCVVELVFKVATGELKNGFAVVRPPGHHAEESTPMGFCYFNSVAVAAKLLQQRLSVSKILIVDWDVHHGNGTQQAFYSDPSVLYMSLHRYDDGNFFPGSGAPDEVGTGPGVGFNVNMAFTGGLDPPMGDAEYLAAFRTVVMPIASEFAPDVVLVSSGFDAVEGHPTPLGGYNLSARCFGYLTKQLMGLAGGRIVLALEGGHDLTAICDASEACVSALLGNELDPLPEKVLQQRPNANAVRSMEKVMEIHSKYWRCLQRTTSTAGRSLIEAQTCENEEAETVTAMASLSVGVKPAEKRPDEEPMEEEPPL
With B2 the Kd (MEF2A [1]) was 5 nM and the koff (MEF2A [2]) was 0.0025 s⁻¹.

B3: HDAC7 (enzyme)
chain: MDLRVGQRPPVEPPPEPTLLALQRPQRLHHHLFLAGLQQQRSVEPMRLSMDTPMPELQVGPQEQELRQLLHKDKSKRSAVASSVVKQKLAEVILKKQQAALERTVHPNSPGIPYRTLEPLETEGATRSMLSSFLPPVPSLPSDPPEHFPLRKTVSEPNLKLRYKPKKSLERRKNPLLRKESAPPSLRRRPAETLGDSSPSSSSTPASGCSSPNDSEHGPNPILGSEALLGQRLRLQETSVAPFALPTVSLLPAITLGLPAPARADSDRRTHPTLGPRGPILGSPHTPLFLPHGLEPEAGGTLPSRLQPILLLDPSGSHAPLLTVPGLGPLPFHFAQSLMTTERLSGSGLHWPLSRTRSEPLPPSATAPPPPGPMQPRLEQLKTHVQVIKRSAKPSEKPRLRQIPSAEDLETDGGGPGQVVDDGLEHRELGHGQPEARGPAPLQQHPQVLLWEQQRLAGRLPRGSTGDTVLLPLAQGGHRPLSRAQSSPAAPASLSAPEPASQARVLSSSETPARTLPFTTGLIYDSVMLKHQCSCGDNSRHPEHAGRIQSIWSRLQERGLRSQCECLRGRKASLEELQSVHSERHVLLYGTNPLSRLKLDNGKLAGLLAQRMFVMLPCGGVGVDTDTIWNELHSSNAARWAAGSVTDLAFKVASRELKNGFAVVRPPGHHADHSTAMGFCFFNSVAIACRQLQQQSKASKILIVDWDVHHGNGTQQTFYQDPSVLYISLHRHDDGNFFPGSGAVDEVGAGSGEGFNVNVAWAGGLDPPMGDPEYLAAFRIVVMPIAREFSPDLVLVSAGFDAAEGHPAPLGGYHVSAKCFGYMTQQLMNLAGGAVVLALEGGHDLTAICDASEACVAALLGNRVDPLSEEGWKQKPNLNAIRSLEAVIRVHSKYWGCMQRLASCPDSWVPRVPGADKEEVEAVTALASLSVGILAEDRPSEQLVEEEEPMNL
B3 showed a Kd (MEF2A [1]) of 3.5 nM and a koff (MEF2A [2]) of 0.00082 s⁻¹.
